Data reported in FireProtDB (doi:10.1021/bi982158q).

Conditions: Bos taurus, pH 7, K2HPO4 5 mM, transition: 2, reversible: Yes, whole UniProt chain shown; for Tm: Thermal

B1: Cytochrome b5 wild type, P00171 (protein)
chain: MAEESSKAVKYYTLEEIQKHNNSKSTWLILHYKVYDLTKFLEEHPGGEEVLREQAGGDATENFEDVGHSTDARELSKTFIIGELHPDDRSKITKPSESIITTIDSNPSWWTNWLIPAISALFVALIYHLYTSEN
**Q.** With B1 as the protein, how does the denaturant m value (25 °C, Urea, Absorbance) read?
**A.** 1.26 kcal/mol/M

**Q.** What about the “denaturant midpoint (higher = more stable)” value (25 °C, Urea, Absorbance) of the same protein?
**A.** 6.9 M

**Q.** And the unfolding free energy (25 °C, Urea, Absorbance)?
**A.** 8.7 kcal/mol

**Q.** What about the Tm (Absorbance) of the same protein?
**A.** 75.2 °C

**Q.** And the Tm (Fluorescence)?
**A.** 50.1 °C
